The record followed here is patent US20180155451A1 (published 2018).

The chains are these.
B1: GpH7-B3 variant (S337_09D)/GpL16-k0 (antibody, human IgG1, kappa)
heavy: not shown
light: DIVMTQSPLSLPVTPGEPASISCQASESLVHSNRNTYLHWYLQKPGQSPQLLIYKVSNRFSGVPDRFSGSGSGTDFTLKISRVEAEDVGVYYCSQNTHVPPTFGQGTKVEIERTVAAPSVFIFPPSDEQLKSGTASVVCLLNNFYPREAKVQWKVDNALQSGNSQESVTEQDSKDSTYSLSSTLTLSKADYEKHKVYACEVTHQGLSSPVTKSFNRGEC
notes: Homodimerized; both H chains altered; also called Ho Ab S337_09D
B2: GpH7-B3 variant (S337_20W)/GpL16-k0 (antibody, human IgG1, kappa)
heavy: not shown
light: B1 light
notes: Homodimerized; both H chains altered; also called Ho Ab S337_20W
B3: GpH7-B3 variant (Y300_06M)/GpL16-k0 (antibody, human IgG1, kappa)
heavy: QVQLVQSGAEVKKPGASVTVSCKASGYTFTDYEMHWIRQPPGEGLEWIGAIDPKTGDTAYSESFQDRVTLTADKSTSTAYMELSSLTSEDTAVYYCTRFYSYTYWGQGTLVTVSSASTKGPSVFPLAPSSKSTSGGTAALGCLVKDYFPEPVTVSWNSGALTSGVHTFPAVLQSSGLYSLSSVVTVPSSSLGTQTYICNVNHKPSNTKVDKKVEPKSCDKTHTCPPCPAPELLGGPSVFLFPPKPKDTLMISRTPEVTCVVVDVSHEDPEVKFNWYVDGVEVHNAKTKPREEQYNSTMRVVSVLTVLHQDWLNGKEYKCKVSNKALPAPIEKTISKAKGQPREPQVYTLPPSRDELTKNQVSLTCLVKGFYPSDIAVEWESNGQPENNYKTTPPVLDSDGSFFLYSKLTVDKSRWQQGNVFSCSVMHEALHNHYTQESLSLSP
light: B1 light
notes: Homodimerized; both H chains altered; also called Ho Ab Y300_06M
B4: GpH7-B3 variant (T335_12R)/GpL16-k0 (antibody, human IgG1, kappa)
heavy: not shown
light: B1 light
notes: Homodimerized; both H chains altered; also called Ho Ab T335_12R
B5: GpH7-B3 variant (S337_08L)/GpL16-k0 (antibody, human IgG1, kappa)
heavy: not shown
light: B1 light
notes: Homodimerized; both H chains altered; also called Ho Ab S337_08L
B6: GpH7-B3 variant (I336_13S)/GpL16-k0 (antibody, human IgG1, kappa)
heavy: not shown
light: B1 light
notes: Homodimerized; both H chains altered; also called Ho Ab I336_13S
B7: GpH7-B3 variant (Y296_06M)/GpL16-k0 (antibody, human IgG1, kappa)
heavy: not shown
light: B1 light
notes: Homodimerized; both H chains altered; also called Ho Ab Y296_06M
B8: GpH7-B3 variant (Y296_20W)/GpL16-k0 (antibody, human IgG1, kappa)
heavy: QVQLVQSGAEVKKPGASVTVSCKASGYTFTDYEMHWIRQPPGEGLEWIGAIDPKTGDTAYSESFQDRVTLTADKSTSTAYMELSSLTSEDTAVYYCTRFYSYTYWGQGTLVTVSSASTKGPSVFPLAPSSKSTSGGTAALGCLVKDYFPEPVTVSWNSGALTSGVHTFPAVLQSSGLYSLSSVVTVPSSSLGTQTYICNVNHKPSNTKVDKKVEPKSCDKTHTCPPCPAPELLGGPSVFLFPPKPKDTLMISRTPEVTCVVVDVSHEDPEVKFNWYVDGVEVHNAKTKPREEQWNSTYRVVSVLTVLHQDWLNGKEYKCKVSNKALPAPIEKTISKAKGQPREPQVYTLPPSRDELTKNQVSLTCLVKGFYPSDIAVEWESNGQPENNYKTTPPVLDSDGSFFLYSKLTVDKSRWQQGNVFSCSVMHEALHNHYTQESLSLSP
light: B1 light
notes: Homodimerized; both H chains altered; also called Ho Ab Y296_20W
B9: GpH7-B3 variant (T335_20W)/GpL16-k0 (antibody, human IgG1, kappa)
heavy: not shown
light: B1 light
notes: Homodimerized; both H chains altered; also called Ho Ab T335_20W
B10: GpH7-B3 variant (T335_11K)/GpL16-k0 (antibody, human IgG1, kappa)
heavy: not shown
light: B1 light
notes: Homodimerized; both H chains altered; also called Ho Ab T335_11K
B11: GpH7-B3 variant (I336_12R)/GpL16-k0 (antibody, human IgG1, kappa)
heavy: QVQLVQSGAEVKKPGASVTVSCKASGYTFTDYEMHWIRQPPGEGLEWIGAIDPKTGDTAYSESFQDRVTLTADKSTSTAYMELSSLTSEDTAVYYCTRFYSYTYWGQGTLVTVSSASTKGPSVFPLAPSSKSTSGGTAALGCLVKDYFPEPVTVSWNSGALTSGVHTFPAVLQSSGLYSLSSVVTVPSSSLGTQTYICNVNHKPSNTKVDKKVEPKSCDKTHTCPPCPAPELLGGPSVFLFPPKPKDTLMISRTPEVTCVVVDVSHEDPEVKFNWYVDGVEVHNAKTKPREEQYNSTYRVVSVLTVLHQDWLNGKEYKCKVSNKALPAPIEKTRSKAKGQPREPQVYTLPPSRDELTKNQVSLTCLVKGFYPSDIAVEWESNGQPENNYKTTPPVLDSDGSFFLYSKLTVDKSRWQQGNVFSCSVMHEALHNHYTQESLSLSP
light: B1 light
notes: Homodimerized; both H chains altered; also called Ho Ab I336_12R
B12: GpH7-B3 variant (T335_09D)/GpL16-k0 (antibody, human IgG1, kappa)
heavy: not shown
light: B1 light
notes: Homodimerized; both H chains altered; also called Ho Ab T335_09D
B13: GpH7-B3 variant (S337_10E)/GpL16-k0 (antibody, human IgG1, kappa)
heavy: not shown
light: B1 light
notes: Homodimerized; both H chains altered; also called Ho Ab S337_10E
B14: GpH7-B3 variant (T335_07I)/GpL16-k0 (antibody, human IgG1, kappa)
heavy: not shown
light: B1 light
notes: Homodimerized; both H chains altered; also called Ho Ab T335_07I
B15: GpH7-B3 variant (S337_06M)/GpL16-k0 (antibody, human IgG1, kappa)
heavy: not shown
light: B1 light
notes: Homodimerized; both H chains altered; also called Ho Ab S337_06M
B16: GpH7-B3 variant (Y296_11K)/GpL16-k0 (antibody, human IgG1, kappa)
heavy: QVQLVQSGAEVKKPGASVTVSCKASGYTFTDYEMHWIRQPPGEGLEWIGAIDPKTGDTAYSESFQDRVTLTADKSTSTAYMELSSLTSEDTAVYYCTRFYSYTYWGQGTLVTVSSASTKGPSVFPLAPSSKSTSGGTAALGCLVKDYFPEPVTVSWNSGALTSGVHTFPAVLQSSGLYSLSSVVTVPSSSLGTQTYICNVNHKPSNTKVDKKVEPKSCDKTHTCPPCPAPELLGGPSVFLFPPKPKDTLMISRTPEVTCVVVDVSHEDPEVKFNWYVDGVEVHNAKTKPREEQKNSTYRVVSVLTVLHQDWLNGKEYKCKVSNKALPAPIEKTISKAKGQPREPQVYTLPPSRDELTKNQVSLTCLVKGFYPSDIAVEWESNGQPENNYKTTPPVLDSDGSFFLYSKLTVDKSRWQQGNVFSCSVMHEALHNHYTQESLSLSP
light: B1 light
notes: Homodimerized; both H chains altered; also called Ho Ab Y296_11K
B17: GpH7-B3 variant (S337_19Q)/GpL16-k0 (antibody, human IgG1, kappa)
heavy: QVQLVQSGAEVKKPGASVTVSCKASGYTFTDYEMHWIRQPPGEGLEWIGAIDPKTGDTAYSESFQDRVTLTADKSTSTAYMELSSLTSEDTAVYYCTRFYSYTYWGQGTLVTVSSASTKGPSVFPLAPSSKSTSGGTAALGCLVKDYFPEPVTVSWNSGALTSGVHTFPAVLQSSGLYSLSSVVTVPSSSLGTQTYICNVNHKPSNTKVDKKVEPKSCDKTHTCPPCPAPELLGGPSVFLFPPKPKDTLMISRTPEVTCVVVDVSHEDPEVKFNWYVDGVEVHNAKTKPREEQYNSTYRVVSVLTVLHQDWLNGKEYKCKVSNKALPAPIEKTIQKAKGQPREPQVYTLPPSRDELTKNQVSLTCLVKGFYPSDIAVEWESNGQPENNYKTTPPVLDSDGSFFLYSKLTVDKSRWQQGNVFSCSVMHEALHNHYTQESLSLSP
light: B1 light
notes: Homodimerized; both H chains altered; also called Ho Ab S337_19Q
B18: GpH7-B3 variant (T335_06M)/GpL16-k0 (antibody, human IgG1, kappa)
heavy: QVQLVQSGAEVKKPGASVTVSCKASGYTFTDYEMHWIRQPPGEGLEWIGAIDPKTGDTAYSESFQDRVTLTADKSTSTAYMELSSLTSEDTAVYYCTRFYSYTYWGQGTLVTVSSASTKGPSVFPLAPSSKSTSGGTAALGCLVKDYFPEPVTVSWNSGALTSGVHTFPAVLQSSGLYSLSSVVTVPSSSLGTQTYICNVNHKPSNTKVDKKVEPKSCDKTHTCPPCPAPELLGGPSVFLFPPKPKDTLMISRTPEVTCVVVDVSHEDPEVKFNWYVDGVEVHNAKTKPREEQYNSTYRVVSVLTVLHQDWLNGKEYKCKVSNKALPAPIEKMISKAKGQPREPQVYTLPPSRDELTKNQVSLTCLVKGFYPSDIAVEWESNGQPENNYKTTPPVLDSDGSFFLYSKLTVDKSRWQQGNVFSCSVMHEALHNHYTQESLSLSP
light: B1 light
notes: Homodimerized; both H chains altered; also called Ho Ab T335_06M
B19: GpH7-B3 variant (T335_10E)/GpL16-k0 (antibody, human IgG1, kappa)
heavy: not shown
light: B1 light
notes: Homodimerized; both H chains altered; also called Ho Ab T335_10E
B20: GpH7-B3 variant (Y300_11K)/GpL16-k0 (antibody, human IgG1, kappa)
heavy: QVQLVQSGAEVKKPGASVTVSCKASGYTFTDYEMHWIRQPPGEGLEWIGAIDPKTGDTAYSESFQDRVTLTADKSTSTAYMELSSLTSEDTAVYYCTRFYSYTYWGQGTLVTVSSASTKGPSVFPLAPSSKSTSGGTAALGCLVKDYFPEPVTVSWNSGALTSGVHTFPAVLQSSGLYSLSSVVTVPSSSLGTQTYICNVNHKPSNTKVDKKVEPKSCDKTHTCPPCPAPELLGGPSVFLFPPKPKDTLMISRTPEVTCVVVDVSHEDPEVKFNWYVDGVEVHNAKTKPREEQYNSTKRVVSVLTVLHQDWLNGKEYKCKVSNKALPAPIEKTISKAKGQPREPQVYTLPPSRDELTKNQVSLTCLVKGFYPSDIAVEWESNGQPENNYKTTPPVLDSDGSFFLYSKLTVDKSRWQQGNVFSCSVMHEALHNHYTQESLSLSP
light: B1 light
notes: Homodimerized; both H chains altered; also called Ho Ab Y300_11K
B21: GpH7-B3 variant (Y300_13S)/GpL16-k0 (antibody, human IgG1, kappa)
heavy: not shown
light: B1 light
notes: Homodimerized; both H chains altered; also called Ho Ab Y300_13S
B22: GpH7-B3 variant (S337_15Y)/GpL16-k0 (antibody, human IgG1, kappa)
heavy: not shown
light: B1 light
notes: Homodimerized; both H chains altered; also called Ho Ab S337_15Y
B23: GpH7-B3 variant (Y300_08L)/GpL16-k0 (antibody, human IgG1, kappa)
heavy: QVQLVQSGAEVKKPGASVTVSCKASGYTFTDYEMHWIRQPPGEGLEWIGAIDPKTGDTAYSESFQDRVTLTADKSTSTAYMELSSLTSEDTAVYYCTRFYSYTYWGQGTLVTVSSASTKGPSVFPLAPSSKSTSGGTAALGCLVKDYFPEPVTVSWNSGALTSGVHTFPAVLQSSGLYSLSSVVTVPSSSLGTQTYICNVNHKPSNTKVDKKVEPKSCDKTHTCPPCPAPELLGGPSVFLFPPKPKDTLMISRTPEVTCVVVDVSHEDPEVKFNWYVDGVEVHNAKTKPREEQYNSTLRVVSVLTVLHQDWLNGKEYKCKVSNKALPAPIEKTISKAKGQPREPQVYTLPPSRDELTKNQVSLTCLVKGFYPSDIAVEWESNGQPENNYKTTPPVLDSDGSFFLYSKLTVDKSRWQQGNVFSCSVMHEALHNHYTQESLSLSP
light: B1 light
notes: Homodimerized; both H chains altered; also called Ho Ab Y300_08L
B24: GpH7-B3 variant (T335_15Y)/GpL16-k0 (antibody, human IgG1, kappa)
heavy: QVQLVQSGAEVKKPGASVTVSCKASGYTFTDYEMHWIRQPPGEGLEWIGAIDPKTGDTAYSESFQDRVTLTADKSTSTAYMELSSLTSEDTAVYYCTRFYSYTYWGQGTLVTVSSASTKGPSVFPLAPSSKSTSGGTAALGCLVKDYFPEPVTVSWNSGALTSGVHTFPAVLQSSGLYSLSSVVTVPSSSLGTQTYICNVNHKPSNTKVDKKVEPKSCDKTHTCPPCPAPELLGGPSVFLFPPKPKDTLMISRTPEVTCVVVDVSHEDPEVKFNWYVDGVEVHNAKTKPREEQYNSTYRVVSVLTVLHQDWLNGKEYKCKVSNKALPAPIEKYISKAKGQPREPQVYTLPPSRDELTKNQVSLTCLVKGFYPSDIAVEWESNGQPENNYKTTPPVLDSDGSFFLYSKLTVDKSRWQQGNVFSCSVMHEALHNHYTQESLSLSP
light: B1 light
notes: Homodimerized; both H chains altered; also called Ho Ab T335_15Y
B25: GpH7-B3 variant (Y300_03V)/GpL16-k0 (antibody, human IgG1, kappa)
heavy: not shown
light: B1 light
notes: Homodimerized; both H chains altered; also called Ho Ab Y300_03V
B26: GpH7-B3 variant (T335_19Q)/GpL16-k0 (antibody, human IgG1, kappa)
heavy: not shown
light: B1 light
notes: Homodimerized; both H chains altered; also called Ho Ab T335_19Q
B27: GpH7-B3 variant (Y296_12R)/GpL16-k0 (antibody, human IgG1, kappa)
heavy: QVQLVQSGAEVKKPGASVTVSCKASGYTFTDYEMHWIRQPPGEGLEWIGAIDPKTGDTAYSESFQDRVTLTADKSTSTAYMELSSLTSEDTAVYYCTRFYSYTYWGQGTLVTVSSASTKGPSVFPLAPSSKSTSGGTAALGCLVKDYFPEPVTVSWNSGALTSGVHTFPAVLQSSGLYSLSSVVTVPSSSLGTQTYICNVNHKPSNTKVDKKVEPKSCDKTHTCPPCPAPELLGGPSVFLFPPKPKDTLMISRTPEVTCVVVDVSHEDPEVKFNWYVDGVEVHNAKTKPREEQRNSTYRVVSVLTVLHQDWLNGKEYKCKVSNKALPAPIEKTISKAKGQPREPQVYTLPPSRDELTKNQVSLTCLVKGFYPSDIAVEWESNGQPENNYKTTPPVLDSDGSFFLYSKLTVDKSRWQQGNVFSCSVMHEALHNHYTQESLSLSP
light: B1 light
notes: Homodimerized; both H chains altered; also called Ho Ab Y296_12R
B28: GpH7-B3 variant (Y300_20W)/GpL16-k0 (antibody, human IgG1, kappa)
heavy: not shown
light: B1 light
notes: Homodimerized; both H chains altered; also called Ho Ab Y300_20W

For this experiment, the target named is T1, FcγRIa extracellular domain with C-terminal His tag (human, UniProt P12314 16-292).
T1 construct: extracellular domain; Expressed in FreeStyle293 cells; used as analyte in Biacore; also called FcgRI; 1a; not shown: His tag at the C terminus
T1 sequence (P12314 16-292): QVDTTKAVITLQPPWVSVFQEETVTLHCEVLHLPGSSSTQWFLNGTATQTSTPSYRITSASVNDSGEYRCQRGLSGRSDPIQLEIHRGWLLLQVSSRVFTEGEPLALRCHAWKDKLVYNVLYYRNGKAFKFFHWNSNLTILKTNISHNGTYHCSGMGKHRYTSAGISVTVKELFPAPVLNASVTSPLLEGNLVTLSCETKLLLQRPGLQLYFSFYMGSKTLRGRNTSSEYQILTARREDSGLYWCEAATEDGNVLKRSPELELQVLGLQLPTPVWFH
In words: SPR (Biacore), captured antibody, FcγRIa analyte; relative to GpH7-B3/GpL16-k0 = 100.
In the case of B1, the Ho/Con_1a is 106 % of control. Take B2: the Ho/Con_1a is 104 % of control. Regarding B3, the Ho/Con_1a is 111 % of control. As to B4, the Ho/Con_1a was 106 % of control. Consider B5, for which the Ho/Con_1a is 105 % of control. Regarding B6, the Ho/Con_1a is 110 % of control. B7: the Ho/Con_1a is 104 % of control. Consider B8, for which the Ho/Con_1a is 106 % of control. For the molecule B9, the Ho/Con_1a is 104 % of control. In the case of B10, the Ho/Con_1a was 103 % of control. For B11, the Ho/Con_1a was 109 % of control. Turning to B12, the Ho/Con_1a was 107 % of control. For the molecule B13, the Ho/Con_1a was 104 % of control.

Turning to B14, the Ho/Con_1a was 105 % of control. As for B15, the Ho/Con_1a was 102 % of control. For B16, the Ho/Con_1a was 102 % of control. With B17, the Ho/Con_1a was 105 % of control. Regarding B18, the Ho/Con_1a is 106 % of control.

Regarding B19, the Ho/Con_1a was 108 % of control. Turning to B20, the Ho/Con_1a is 101 % of control. For B21 the value was 110 % of control. As to B22, the Ho/Con_1a was 104 % of control. Regarding B23, the Ho/Con_1a is 109 % of control. Regarding B24, the Ho/Con_1a was 106 % of control. As to B25, the Ho/Con_1a was 112 % of control. Consider B26, for which the Ho/Con_1a was 105 % of control. As for B27, the Ho/Con_1a is 103 % of control. Turning to B28, the Ho/Con_1a was 110 % of control.
